# Measurements taken from publication PMC2562705 (Biochemistry, 2008).
# Like-named read-outs stand apart in the source and are kept apart here.
# Columns and labels:
# [1] = biological target: T1, RhamD from Azotobacter vinlandii (Azotobacter vinelandii, UniProt C1DMY1); assay: dehydration activity; format: biochemical; settings: kinetic data not shown
# T1 sequence (C1DMY1 1-394): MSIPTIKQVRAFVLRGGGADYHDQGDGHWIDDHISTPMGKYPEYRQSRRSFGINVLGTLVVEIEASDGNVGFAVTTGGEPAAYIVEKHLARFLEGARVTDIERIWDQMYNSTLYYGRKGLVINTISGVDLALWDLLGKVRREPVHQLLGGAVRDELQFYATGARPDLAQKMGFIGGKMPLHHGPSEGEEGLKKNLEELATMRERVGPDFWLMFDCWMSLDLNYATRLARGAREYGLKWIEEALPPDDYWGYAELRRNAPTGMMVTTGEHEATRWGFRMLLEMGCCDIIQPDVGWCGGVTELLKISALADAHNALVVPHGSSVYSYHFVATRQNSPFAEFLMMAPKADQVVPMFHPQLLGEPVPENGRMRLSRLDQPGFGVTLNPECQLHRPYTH
# [2] = biological target: RhamD from Gibberella zeae (Fusarium graminearum, UniProt D0VX14); settings: kinetic data not shown
# RhamD from Gibberella zeae, sequence (D0VX14 1-450): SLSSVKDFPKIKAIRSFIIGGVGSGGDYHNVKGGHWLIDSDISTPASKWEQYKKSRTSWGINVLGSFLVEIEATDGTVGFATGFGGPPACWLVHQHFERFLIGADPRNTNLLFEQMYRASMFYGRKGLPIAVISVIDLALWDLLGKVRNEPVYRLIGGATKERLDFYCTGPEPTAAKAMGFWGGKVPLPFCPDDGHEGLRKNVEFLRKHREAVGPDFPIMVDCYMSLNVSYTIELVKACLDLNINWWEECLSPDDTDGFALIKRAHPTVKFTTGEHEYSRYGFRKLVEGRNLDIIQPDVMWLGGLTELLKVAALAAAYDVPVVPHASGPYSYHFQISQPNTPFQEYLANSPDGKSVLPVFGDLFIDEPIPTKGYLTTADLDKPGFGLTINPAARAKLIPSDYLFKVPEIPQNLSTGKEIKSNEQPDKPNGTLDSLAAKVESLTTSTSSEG
# crystal structure [3] = biological target: the molecule itself; assay: crystal structure
# dehydration [4] = substrate: C[C@H](O)[C@H](O)[C@@H](O)[C@@H](O)C(=O)O; assay: dehydration; format: biochemical, Salmonella enterica; settings: 5 mM MgCl2, Tris-HCl pH 7.9 or K-Hepes pH 7.5, 25 °C
# dehydration [5] = substrate: O=C(O)[C@H](O)[C@H](O)[C@@H](O)CO; assay: dehydration; format: biochemical, Salmonella enterica; settings: 5 mM MgCl2, Tris-HCl pH 7.9 or K-Hepes pH 7.5, 25 °C
# dehydration [6] = substrate: O=C(O)[C@H](O)[C@H](O)[C@@H](O)[C@@H](O)CO; assay: dehydration; format: biochemical, Salmonella enterica; settings: 5 mM MgCl2, Tris-HCl pH 7.9 or K-Hepes pH 7.5, 25 °C
# dehydration [7] = substrate: C[C@H](O)[C@H](O)[C@@H](O)[C@@H](O)C(=O)O; assay: dehydration; format: biochemical, Escherichia coli; settings: 5 mM MgCl2, Tris-HCl pH 7.9 or K-Hepes pH 7.5, 25 °C
# dehydration [8] = substrate: O=C(O)[C@H](O)[C@H](O)[C@@H](O)CO; assay: dehydration; format: biochemical, Escherichia coli; settings: 5 mM MgCl2, Tris-HCl pH 7.9 or K-Hepes pH 7.5, 25 °C
# dehydration [9] = substrate: O=C(O)[C@H](O)[C@H](O)[C@@H](O)[C@@H](O)CO; assay: dehydration; format: biochemical, Escherichia coli; settings: 5 mM MgCl2, Tris-HCl pH 7.9 or K-Hepes pH 7.5, 25 °C
# crystal structure [10] = biological target: the molecule itself; assay: crystal structure; remark: listed apart in the source
molecule,measurement,setting,value
C[C@H](O)[C@H](O)[C@@H](O)[C@@H](O)C(=O)O [L-rhamnonate],dehydration activity,[1],Each of these homologues catalyzes the RhamD reaction
same,dehydration activity,[2],Each of these homologues catalyzes the RhamD reaction
L-rhamnonate dehydratase (RhamD) from Salmonella typhimurium LT2 (enzyme) ENIMTLPKIKHVRAWFIGGATAEKGAGGGDYHDQGGNHWIDDHIATPMSKYRDYEQSRQSFGINVLGTLIVEVEAENRQTGFAVSTAGEMGCFIVEKHLNRFIEGKCVSDIKLIHDQMLGATMYYSGSGGLVMNTISCVDLALWDLFGKVVGLPVYKLLGGAVRDEIQFYATGARPDLAKEMGFIGGKMPTHWGPHDGDAGIRKDAAMVADMREKCGPDFWLMLDCWMSQDVNYATKLAHACAPFNLKWIEECLPPQQYEGYRELKRNAPAGMMVTSGEHHGTLQSFRTLAETGIDIMQPDVGWCGGLTTLVEIAALAKSRGQLVVPHGSSVYSHHAVITFTNTPFSEFLMTSPDCSTLRPQFDPILLDEPVPVNGRIHKSVLDKPGFGVELNRDCHLKRPYSH,stoichiometry N,crystal structure [3],8
stRhamD (RhamD from S. typhimurium LT2) (Salmonella enterica subsp. enterica serovar Typhimurium str. LT2) (protein) MENIMTLPKIKHVRAWFIGGATAEKGAGGGDYHDQGGNHWIDDHIATPMSKYRDYEQSRQSFGINVLGTLIVEVEAENRQTGFAVSTAGEMGCFIVEKHLNRFIEGKCVSDIKLIHDQMLGATMYYSGSGGLVMNTISCVDLALWDLFGKVVGLPVYKLLGGAVRDEIQFYATGARPDLAKEMGFIGGKMPTHWGPHDGDAGIRKDAAMVADMREKCGPDFWLMLDCWMSQDVNYATKLAHACAPFNLKWIEECLPPQQYEGYRELKRNAPAGMMVTSGEHHGTLQSFRTLAETGIDIMQPDVGWCGGLTTLVEIAALAKSRGQLVVPHGSSVYSHHAVITFTNTPFSEFLMTSPDCSTLRPQFDPILLDEPVPVNGRIHKSVLDKPGFGVELNRDCHLKRPYSH,Km,dehydration [4],250 ± 80 µM
same,kcat,dehydration [4],3.9 ± 1.6 s⁻¹
same,kcat/Km,dehydration [4],16000 M⁻¹ s⁻¹
same,Km,dehydration [5],1600 ± 1200 µM
same,kcat,dehydration [5],0.05 ± 0.03 s⁻¹
same,kcat/Km,dehydration [5],30 M⁻¹ s⁻¹
same,Km,dehydration [6],60 ± 40 µM
same,kcat,dehydration [6],0.1 ± 0.06 s⁻¹
same,kcat/Km,dehydration [6],1700 M⁻¹ s⁻¹
"L-rhamnonate dehydratase (RhamD) from Escherichia coli K-12 (enzyme, E. coli K-12) MTLPKIKQVRAWFTGGATAEKGAGGGDYHDQGANHWIDDHIATPMSKYRDYEQSRQSFGINVLGTLVVEVEAENGQTGFAVSTAGEMGCFIVEKHLNRFIEGKCVSDIKLIHDQMLSATLYYSGSGGLVMNTISCVDLALWDLFGKVVGLPVYKLLGGAVRDEIQFYATGARPDLAKEMGFIGGKMPTHWGPHDGDAGIRKDAAMVADMREKCGEDFWLMLDCWMSQDVNYATKLAHACAPYNLKWIEECLPPQQYESYRELKRNAPVGMMVTSGEHHGTLQSFRTLSETGIDIMQPDVGWCGGLTTLVEIAAIAKSRGQLVVPHGSSVYSHHAVITFTNTPFSEFLMTSPDCSTMRPQFDPILLNEPVPVNGRIHKSVLDKPGFGVELNRDCNLKRPYSH",Km,dehydration [7],150 ± 70 µM
same,kcat,dehydration [7],3.2 ± 0.2 s⁻¹
same,kcat/Km,dehydration [7],21000 M⁻¹ s⁻¹
same,Km,dehydration [8],2000 ± 300 µM
same,kcat,dehydration [8],0.6 ± 0.03 s⁻¹
same,kcat/Km,dehydration [8],300 M⁻¹ s⁻¹
same,Km,dehydration [9],150 ± 60 µM
same,kcat,dehydration [9],0.2 ± 0.1 s⁻¹
same,kcat/Km,dehydration [9],1300 M⁻¹ s⁻¹
same,stoichiometry N,crystal structure [10],8
YfaW / ecRhamD (RhamD from E. coli K-12) (Escherichia coli K-12; H277N) (protein) MTLPKIKQVRAWFTGGATAEKGAGGGDYHDQGANHWIDDHIATPMSKYRDYEQSRQSFGINVLGTLVVEVEAENGQTGFAVSTAGEMGCFIVEKHLNRFIEGKCVSDIKLIHDQMLSATLYYSGSGGLVMNTISCVDLALWDLFGKVVGLPVYKLLGGAVRDEIQFYATGARPDLAKEMGFIGGKMPTHWGPHDGDAGIRKDAAMVADMREKCGEDFWLMLDCWMSQDVNYATKLAHACAPYNLKWIEECLPPQQYESYRELKRNAPVGMMVTSGENHGTLQSFRTLSETGIDIMQPDVGWCGGLTTLVEIAAIAKSRGQLVVPHGSSVYSHHAVITFTNTPFSEFLMTSPDCSTMRPQFDPILLNEPVPVNGRIHKSVLDKPGFGVELNRDCNLKRPYSH,Km,dehydration [7],8800 ± 900 µM
same,kcat,dehydration [7],0.09 ± 0.01 s⁻¹
same,kcat/Km,dehydration [7],10 M⁻¹ s⁻¹
YfaW / ecRhamD (RhamD from E. coli K-12) (Escherichia coli K-12; H325N) (protein) MTLPKIKQVRAWFTGGATAEKGAGGGDYHDQGANHWIDDHIATPMSKYRDYEQSRQSFGINVLGTLVVEVEAENGQTGFAVSTAGEMGCFIVEKHLNRFIEGKCVSDIKLIHDQMLSATLYYSGSGGLVMNTISCVDLALWDLFGKVVGLPVYKLLGGAVRDEIQFYATGARPDLAKEMGFIGGKMPTHWGPHDGDAGIRKDAAMVADMREKCGEDFWLMLDCWMSQDVNYATKLAHACAPYNLKWIEECLPPQQYESYRELKRNAPVGMMVTSGEHHGTLQSFRTLSETGIDIMQPDVGWCGGLTTLVEIAAIAKSRGQLVVPNGSSVYSHHAVITFTNTPFSEFLMTSPDCSTMRPQFDPILLNEPVPVNGRIHKSVLDKPGFGVELNRDCNLKRPYSH,Km,dehydration [7],300 ± 30 µM
same,kcat,dehydration [7],0.0005 ± 0.0001 s⁻¹
same,kcat/Km,dehydration [7],1.6 M⁻¹ s⁻¹
